# Data published in patent publication US20140005241 (The Curators of the University of Missouri, published 2014).
# Target: SARS-CoV nsp13 helicase (SARS coronavirus, UniProt P0C6X7 P0C6X7:5302-5902)
# Assay: EMSA
# Settings: tags: GST (baculovirus) or His6; label: 5'-Cy3; 20 nt 5' overhang, 40 bp duplex
binder,measurement,value
60/40-mer (20ss:40ds) DNA (dsDNA) DNA 1: TAGATAGCATTAGATAGCCACAGATAGCATCCTAGATAGCATTGGTGCTCGAACAGTGAC DNA 2: GTCACTGTTCGAGCACCAATGCTATCTAGGATGCTATCTG,binding result,binds
